In publication PMC10342119, “ABF1 Positively Regulates Rice Chilling Tolerance via Inducing Trehalose Biosynthesis” (International Journal of Molecular Sciences, 2023):

B1: GST-ABF1 (natural protein, rice (Oryza sativa L.), UniProt Q0JHF1 1-266, looked up)
chain: MMASRVMASSSPSHTASDLARFAAGRGGGGSAGLGSMNVEEILRGIYADMPTPALPLVGGDRPMSPLPAPDVAAAPRTAEEVWKEITGAGVAAAAGGVVPPAAAAAAAPAVVAGAGAGTGAEMTLEDFLAREGAVKEDEAVVTDPSAAKGQVVMGFLNGAEVTGGVTGGRSRKRHLMDPMDRAAMQRQKRMIKNRESAARSRERKQAYIAELESLVTQLEEENAKMFKEQEEQHQKRLKELKEMVVPVIIRKTSARDLRRTNSMEW
notes: ABF1 (bZIP12), bZIP transcription factor of rice; the CDS was fused into pGEX-4T-1; also called bZIP12; source: E. coli Transetta (DE3), purified (GST-Sefinose Kit); not shown: GST, N-terminal, kept
B2: TPS2 promoter probe (P3, G-box) (dsDNA)
DNA 1: CAGACCTGACGTCAGACGACGATTAGCCACGTGGCACACAGTGCACCCGACACGACGAA
DNA 2: TTCGTCGTGTCGGGTGCACTGTGTGCCACGTGGCTAATCGTCGTCTGACGTCAGGTCTG

Experiments:
His-SAPK10 = target: T1, His-SAPK10 (rice (Oryza sativa L.), UniProt Q75H77 1-362); assay: pull-down; GST pull-down on glutathione magnetic agarose beads; 50 mM Tris-HCl pH 7.5, 5% glycerol, 1 mM EDTA, 1 mM DTT, 1 mM PMSF, 0.01% Nonidet P-40, 150 mM KCl; 4 °C for 2 h; blots with anti-His and anti-GST; details: both partners purified
T1 construct: SAPK10, SnRK2-type Ser/Thr protein kinase of rice; the CDS was fused into pET-28a; source: E. coli Transetta (DE3), purified (6x His-Tagged Protein Purification Kit); not shown: His, N-terminal, kept
T1 sequence (looked up): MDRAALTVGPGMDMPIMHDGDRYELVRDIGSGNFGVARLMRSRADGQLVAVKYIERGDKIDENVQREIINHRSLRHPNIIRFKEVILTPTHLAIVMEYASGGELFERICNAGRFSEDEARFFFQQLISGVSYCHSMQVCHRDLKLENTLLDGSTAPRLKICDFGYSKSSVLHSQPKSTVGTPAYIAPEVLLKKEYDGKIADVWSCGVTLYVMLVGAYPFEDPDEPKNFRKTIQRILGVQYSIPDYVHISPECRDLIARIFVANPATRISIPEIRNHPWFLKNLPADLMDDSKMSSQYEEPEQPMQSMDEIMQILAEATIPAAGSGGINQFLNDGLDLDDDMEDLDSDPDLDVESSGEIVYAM

GST-ABF1 = target: T2, GST-ABF1 (Oryza sativa L. ssp. japonica cv …, UniProt Q0JHF1 1-266); assay: EMSA; binding lost with unlabeled probe; EMSA/gel-shift binding buffer (composition, pH and temperature not stated); 20 fmol biotin-labeled probe; 6% acrylamide gel; details: protein: recombinant; tags: N-terminal GST (pGEX-4T-1); chain copies: 2; label: biotin; blunt
T2 sequence: B1 chain

| Binder | binding result (His-SAPK10) | binding result (GST-ABF1) |
| --- | --- | --- |
| B1 | binds |  |
| B2 |  | binds |
